Patent US11078465B2, “Alcohol dehydrogenase mutant and application thereof in synthesis of diaryl chiral alcohols” (Jiangnan University, priority 2018, dated 2021)

What was measured:
Type in all cases: biochemical
[1] = Asymmetric reduction in 20 mL biocatalytic system, conversion
[2] = Kinetic analysis of alcohol dehydrogenase and mutants (NADPH oxidation, 340 nm, double reciprocal curve); conditions: substrate CPMK
Procedure, shortened: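 His-tagged recombinant KpADH (wild type or mutant) purified by nickel affinity, desalted into Tris-HCl pH 7.0. Activity measured at 30° C in 100 mM sodium phosphate pH 7.0 with 1.0 mM NADPH and 1.0 mM CPMK by 340 nm NADPH absorbance decrease; kinetic parameters from double reciprocal plots over varied substrate and coenzyme concentrations.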

[3] = Substrate specificity, specific activity
Procedure, shortened: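 Alcohol dehydrogenase mutants were assayed with 1.0 mM NADPH and 1.0 mM ketone substrate (CPMK or other prochiral carbonyls) in 100 mM sodium phosphate, pH 7.0, at 30° C. NADPH oxidation was followed at 340 nm; one U oxidizes 1 μmol NADPH per min (ε 6220).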

[4] = Stereoselectivity (ee) of CPMK reduction, chiral liquid chromatography
Procedure, shortened: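 ee is calculated from the (S)-CPMA and (R)-CPMA molar concentrations measured by chiral liquid chromatography; conversion also by GC. Samples are ethyl acetate extracts of the reaction, dried and redissolved in ethanol.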

[5] = Stereoselectivity on different substrates; conditions: for Stereoselectivity (ee): configuration in brackets
Procedure, shortened: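 Alcohol dehydrogenase mutants reduced prochiral ketones, including CPMK, aryl pyridyl and diaryl ketones, acetophenones and keto esters. Reactions were extracted into ethyl acetate and redissolved in ethanol. Conversion and ee were determined by chiral liquid and gas chromatography, with ee calculated from (S)- and (R)-CPMA molar concentrations.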

[6] = Stereoselectivity on different substrates; conditions: configuration in brackets
Procedure, shortened: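 Reaction mixture extracted with ethyl acetate, dried organic phase redissolved in ethanol, then analysed by chiral liquid chromatography and gas chromatography. Values are transformation rate and ee, with ee from LC molar concentrations of (S)- and (R)-CPMA. Substrates were prochiral ketones reduced by alcohol dehydrogenase mutants.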

B1: E214I/S237A: isoleucine for glutamate at position 214 and alanine for serine at position 237 of SEQ ID No. 2 (protein)
chain: MSVLISGASGYIAKHIVRVLLEQNYKVIGTVRSQDKADKLLKQYNNPNLSYEIVPEIANLDAFDDIFKKHGKEIKYVIHAASPVNFGAKDLEKDLVIPAINGTKNMFEAIKKYAPDTVERVVMTASYASIMTPHRQNDPTLTLDEETWNPVTEENAYENVFTAYCASKTFAEKEAWKFVKENSDAVKFKLTTIHPSFVFGPQNFDEDVTKKLNITCEIINGLLHAPFDTKVEKTHFAQFIDVRDVAKTHVLGFQKDELINQRLLLCNGAFSQQDIVNVFNEDFPELKGQFPPEDKDTDLNKGVTGCKIDNEKTKKLLAFEFTPFHKTIHDTVYQILHKEGRV
modifications: Protein translated from synthetic DNA
Q: What does the source list for B1?
A: Conversion rate ([1]; 4-chloroacetophenone 100 mM, 1 h): 59%; Conversion rate ([1]; 4-chloroacetophenone 100 mM, 2 h): 72%; Conversion rate ([1]; 4-chloroacetophenone 100 mM, 3 h): 89%; Conversion rate ([1]; 4-chloroacetophenone 100 mM, 4 h): 85%; Conversion rate ([1]; 4-chloroacetophenone 100 mM, 6 h): 97.6%; Conversion rate ([1]; 4-chloroacetophenone 100 mM, 8 h): 99.8%; Conversion rate ([1]; 4-chloroacetophenone 100 mM, 12 h): >99.9%; Conversion rate ([1]; 4-chloroacetophenone 100 mM, 24 h): >99.9%; Conversion rate ([1]; 4-chloroacetophenone 200 mM, 1 h): 40%; Conversion rate ([1]; 4-chloroacetophenone 200 mM, 2 h): 52.4%; Conversion rate ([1]; 4-chloroacetophenone 200 mM, 3 h): 69.5%; Conversion rate ([1]; 4-chloroacetophenone 200 mM, 4 h): 76.9%; Conversion rate ([1]; 4-chloroacetophenone 200 mM, 6 h): 88.6%; Conversion rate ([1]; 4-chloroacetophenone 200 mM, 8 h): 95.6%; Conversion rate ([1]; 4-chloroacetophenone 200 mM, 12 h): 99.2%; Conversion rate ([1]; 4-chloroacetophenone 200 mM, 24 h): 99.7%; Conversion rate ([1]; 4-chloroacetophenone 500 mM, 1 h): 28.5%; Conversion rate ([1]; 4-chloroacetophenone 500 mM, 2 h): 38.9%; Conversion rate ([1]; 4-chloroacetophenone 500 mM, 3 h): 50.0%; Conversion rate ([1]; 4-chloroacetophenone 500 mM, 4 h): 64.2%; Conversion rate ([1]; 4-chloroacetophenone 500 mM, 6 h): 80.9%; Conversion rate ([1]; 4-chloroacetophenone 500 mM, 8 h): 90.2%; Conversion rate ([1]; 4-chloroacetophenone 500 mM, 12 h): 94.9%; Conversion rate ([1]; 4-chloroacetophenone 500 mM, 24 h): 99.2%; Kcat [2]: 12.06 ± 0.52 s⁻¹; Km [2]: 470 ± 50 µM; Vmax [2]: 18.09 ± 0.78 µM/min/mg; specific activity ([3]; substrate [drawing 1]): 0.09 U/mg; specific activity ([3]; substrate [drawing 2]): 0.08 U/mg; specific activity ([3]; substrate [drawing 3]): 1.42 U/mg; specific activity ([3]; substrate [drawing 4]): 2.94 U/mg; specific activity ([3]; substrate [drawing 5]): 12.38 U/mg; specific activity ([3]; substrate [drawing 6], 4-chlorophenacyl chloride): 30.09 U/mg; specific activity ([3]; substrate [drawing 7]): 21.73 U/mg; specific activity ([3]; substrate [drawing 8]): 30.28 U/mg; specific activity ([3]; substrate [drawing 9], ethyl 4-chloro-3-oxobutanoate): 5.58 U/mg; ee value, (R)-CPMA ([4]; R configuration product, listed as E2141/S237A): 98.3%; e.e. ([4]; product configuration in brackets): 98.3 (R); ee ([5]; substrate 4-chloroacetophenone, (R)): 99.4%; Stereoselectivity (ee) ([5]; substrate [drawing 10], acetophenone): 9.69 (R); Stereoselectivity (ee) ([5]; substrate [drawing 11], 4-chloroacetophenone): 99.4 (R); Stereoselectivity (ee) ([5]; substrate [drawing 12], 4-chlorobenzoyl chloride): 76.4 (R); Stereoselectivity (ee) ([5]; substrate [drawing 16], (4-bromophenyl)-(phenyl)-methanone): 93.4 (S); Stereoselectivity (ee) ([5]; substrate [drawing 17], p-nitrobenzophenone): 86.5 (S); Stereoselectivity (ee) ([6]; substrate [drawing 13]): 36.8 (R); Stereoselectivity (ee) ([6]; substrate [drawing 14], likely CPMK (values partly match Table 4)): 98.4 (R); Stereoselectivity (ee) ([6]; substrate [drawing 15]): 52.6 (S); Stereoselectivity (ee) ([6]; substrate [drawing 18]): 81.8 (S)
